Molecular target: TSH receptor (TSHR) on human ML-1 cells (human (endogenous in ML-1)) (UniProt P16473)
Assay: radioligand binding; real-time kinetic binding assay with LigandTracer; 10^6 ML-1 cells seeded in a tilted Petri dish; 2 mL of 30 nM radiolabeled ligand in culture medium for 1 h, then medium without ligand to follow release; Kd from binding/release curve (GraphPad Prism)

TSH receptor (TSHR) on human ML-1 cells (human (endogenous in ML-1)), sequence (P16473 21-764): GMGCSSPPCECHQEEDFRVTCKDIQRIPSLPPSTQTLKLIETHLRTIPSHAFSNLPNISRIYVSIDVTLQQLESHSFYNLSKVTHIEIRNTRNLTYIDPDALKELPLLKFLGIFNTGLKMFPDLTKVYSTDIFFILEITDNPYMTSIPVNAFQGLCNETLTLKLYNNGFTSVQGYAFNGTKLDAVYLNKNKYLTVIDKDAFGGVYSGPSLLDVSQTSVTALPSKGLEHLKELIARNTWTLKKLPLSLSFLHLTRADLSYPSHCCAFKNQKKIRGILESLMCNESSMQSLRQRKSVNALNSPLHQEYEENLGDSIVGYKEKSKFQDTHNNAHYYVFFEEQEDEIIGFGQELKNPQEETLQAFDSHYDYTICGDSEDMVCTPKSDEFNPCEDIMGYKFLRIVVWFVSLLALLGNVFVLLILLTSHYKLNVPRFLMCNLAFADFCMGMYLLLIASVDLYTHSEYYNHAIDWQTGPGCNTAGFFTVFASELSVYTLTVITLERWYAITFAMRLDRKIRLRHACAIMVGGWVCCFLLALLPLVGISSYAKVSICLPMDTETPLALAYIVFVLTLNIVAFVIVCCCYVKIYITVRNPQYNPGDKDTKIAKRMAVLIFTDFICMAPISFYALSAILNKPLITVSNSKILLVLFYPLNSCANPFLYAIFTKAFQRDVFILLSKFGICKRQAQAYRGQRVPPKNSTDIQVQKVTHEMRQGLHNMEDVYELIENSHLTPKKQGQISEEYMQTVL
99mTc-HYNIC-TR1401, radiolabeled superagonist recombinant human TSH analogue TR1401, sequence (P01215 25-116): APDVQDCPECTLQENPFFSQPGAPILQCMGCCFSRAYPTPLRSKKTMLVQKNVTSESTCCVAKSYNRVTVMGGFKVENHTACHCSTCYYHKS
99mTc-HYNIC-TR1401, radiolabeled superagonist recombinant human TSH analogue TR1401, sequence (P01222 21-132): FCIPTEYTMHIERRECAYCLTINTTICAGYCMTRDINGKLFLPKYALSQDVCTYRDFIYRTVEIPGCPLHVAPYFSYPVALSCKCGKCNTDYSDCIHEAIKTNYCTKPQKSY
99mTc-HYNIC-TR1402, radiolabeled superagonist recombinant human TSH analogue TR1402, sequence (P01215 25-116): as the sequence (P01215 25-116) above
99mTc-HYNIC-TR1402, radiolabeled superagonist recombinant human TSH analogue TR1402, sequence (P01222 21-132): as the sequence (P01222 21-132) above

Substance | Kd
99mTc-HYNIC-TR1401, radiolabeled superagonist recombinant human TSH analogue TR1401 (from UniProt P01215 25-116; P01222 21-132) (ligand) | 2.7 nM
99mTc-HYNIC-TR1402, radiolabeled superagonist recombinant human TSH analogue TR1402 (from UniProt P01215 25-116; P01222 21-132) (ligand) | 0.5 nM
